Experiment [1] has as its target T1, human Nectin-4 extracellular antigen hNectin-4-His (human, UniProt Q96NY8 32-349).
T1 construct: C-terminal 8xHis tag included
T1 sequence: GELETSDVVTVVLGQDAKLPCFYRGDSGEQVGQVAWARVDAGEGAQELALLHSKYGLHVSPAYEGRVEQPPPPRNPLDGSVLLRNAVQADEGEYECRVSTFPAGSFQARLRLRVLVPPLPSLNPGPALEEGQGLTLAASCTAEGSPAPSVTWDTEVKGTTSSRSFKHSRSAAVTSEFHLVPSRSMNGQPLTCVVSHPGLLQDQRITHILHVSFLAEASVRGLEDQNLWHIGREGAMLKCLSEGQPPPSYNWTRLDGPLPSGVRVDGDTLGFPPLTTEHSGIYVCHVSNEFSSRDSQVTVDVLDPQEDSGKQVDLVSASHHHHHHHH
Nature of the experiment: ELISA, coated hNectin-4-His. The source says: (§1) The binding activity of the antibodies was detected by ELISA.

For experiment [2], the target named is T1, human Nectin-4 extracellular antigen …. The experiment can be described thus: SPR, antibody on Protein A chip, 1:1 fit. The text has this: (§2) In this study, the affinity of the antibodies for the human Nectin-4 extracellular antigen was detected by surface plasmon resonance (SPR) technique (BIAcore: GE Healthcare, T200).
On the technique in general: SPR reads the build-up and loss of mass on a sensor chip optically.

In experiment [3] the target is T2, human Nectin-4, full length on cells (human, UniProt Q96NY8 32-510).
T2 construct: whole, on cells; T-47D cells positive for Nectin-4 expression; also called Nectin-4 on T-47D cells; CHO-Nectin-4
T2 sequence (looked up): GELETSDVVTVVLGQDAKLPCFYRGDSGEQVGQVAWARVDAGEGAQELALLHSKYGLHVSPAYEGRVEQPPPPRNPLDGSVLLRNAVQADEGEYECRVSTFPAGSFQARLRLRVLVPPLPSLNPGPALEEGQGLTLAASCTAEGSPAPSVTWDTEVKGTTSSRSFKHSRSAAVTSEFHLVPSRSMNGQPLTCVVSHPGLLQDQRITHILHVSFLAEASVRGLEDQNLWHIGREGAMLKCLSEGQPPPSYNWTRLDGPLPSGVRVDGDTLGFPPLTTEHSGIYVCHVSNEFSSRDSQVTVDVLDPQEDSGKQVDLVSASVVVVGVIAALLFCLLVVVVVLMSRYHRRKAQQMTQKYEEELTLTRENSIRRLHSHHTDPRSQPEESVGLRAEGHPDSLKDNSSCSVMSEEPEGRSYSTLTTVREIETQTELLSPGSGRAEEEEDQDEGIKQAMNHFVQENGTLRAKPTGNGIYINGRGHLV
The experiment can be described thus: flow cytometry, T-47D cells, antibody bound on ice, 0 h at 37 C. The procedure:
(§3) In this assay, the relative amount of antibodies remaining on the cell surface after co-incubation at 37° C. for a certain period of time was detected by FACS to reflect the endocytosis efficiency. The procedures are briefly described as follows: T-47D cells (human ductal breast cancer cells, derived from the Cell Bank of Chinese Academy of Sciences, Cat.No. TCHu 87); the antibodies of interest were adjusted to 10 µg/mL and co-incubated with the cells on ice for 1 h; the cells were washed 3 times with pre-cooled PBS, and then placed at 37° C. and incubated for 0 h, 2 h and 4 h; 0.2% N₃Na was added to stop the endocytosis reaction; the cells were washed with PBS thrice, followed by the addition of the PE-labeled anti-human Fc secondary antibody (Invitrogen 12-4998-82); the cells were incubated at 4° C. for 30 min; the red fluorescence signal was detected on a flow cytometer.
(In general: Flow cytometry measures light scatter and fluorescence of single cells or particles in a stream.)

Experiment [4] concerns the target T2, human Nectin-4, full length on cells. Nature of the experiment: flow cytometry on T-47D cells. As to the method: In this study, the binding activity of different antibodies to T-47D cells positive for Nectin-4 expression was detected by FACS, and the EC₅₀ for the binding of antibodies to the cells was analyzed by a four-parameter method. The procedures are briefly described as follows: T-47D cells (the Cell Bank of Chinese Academy of Sciences, TCHu 87) were trypsinized; the antibodies were serially diluted and co-incubated with T-47D cells at 4° C. for 0.5-1 h, followed by the addition of the secondary PE-labeled anti-human Fc antibody (Invitrogen, 12-4998-82); the signal intensity of red fluorescence was detected on a flow cytometer, and curves were plotted using Graphpad Prism and the EC₅₀ was calculated.

Experiment [5] deals with T3, mouse mNectin-4 protein (ACRO, NE4-M52H3) (mouse, UniProt Q8R007 31-347).
T3 construct: bought; construct not described; also called mouse Nectin-4
T3 sequence (looked up): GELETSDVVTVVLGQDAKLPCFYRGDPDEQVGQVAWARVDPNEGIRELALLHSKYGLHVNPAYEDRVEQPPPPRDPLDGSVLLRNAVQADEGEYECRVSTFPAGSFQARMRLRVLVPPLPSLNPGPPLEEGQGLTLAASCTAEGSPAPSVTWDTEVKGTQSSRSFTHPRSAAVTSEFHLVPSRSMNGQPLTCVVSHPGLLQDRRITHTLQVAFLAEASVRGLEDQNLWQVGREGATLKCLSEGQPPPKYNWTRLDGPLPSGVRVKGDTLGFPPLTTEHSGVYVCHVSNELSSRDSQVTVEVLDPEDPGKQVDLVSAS
The experiment can be described thus: ELISA, coated antigen. In general terms: ELISA stands for enzyme-linked immunosorbent assay.

The target in experiment [6] is T1, human Nectin-4 extracellular antigen …. Nature of the experiment: ELISA, coated antigen.
Experiment [7] has as its target T4, monkey cNectin-4 protein (ACRO, NE4-C52H4) (cynomolgus monkey, UniProt A0A2K5WES1 32-349).
T4 construct: bought; construct not described; also called cynomolgus monkey Nectin-4
T4 sequence: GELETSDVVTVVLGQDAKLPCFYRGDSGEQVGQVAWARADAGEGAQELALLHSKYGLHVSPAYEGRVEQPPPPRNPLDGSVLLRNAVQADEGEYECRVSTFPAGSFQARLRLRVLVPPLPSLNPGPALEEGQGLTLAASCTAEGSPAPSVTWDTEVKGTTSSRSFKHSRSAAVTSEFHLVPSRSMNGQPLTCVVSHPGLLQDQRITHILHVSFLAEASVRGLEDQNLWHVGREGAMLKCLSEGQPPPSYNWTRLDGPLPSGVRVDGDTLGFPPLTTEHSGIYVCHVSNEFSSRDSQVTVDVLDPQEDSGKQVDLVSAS
The experiment can be described thus: ELISA, coated antigen.

Experiment [8] concerns the target T2, human Nectin-4, full length on cells. Nature of the experiment: flow cytometry, T-47D cells, antibody bound on ice, 0 h at 37 C. The procedure:
as §3
This is another data set of the same source.

Experiment [9] deals with T1, human Nectin-4 extracellular antigen …. The experiment can be described thus: ELISA, coated hNectin-4-His.
Excerpt: as §1
The source holds these as a separate data set.

For experiment [10] the target is unchanged. The experiment can be described thus: ELISA, coated hNectin-4-His.
Excerpt: as §1
This is another data set of the same source.

Experiment [11] has the same target. Nature of the experiment: SPR (BIAcore T200): antibody captured on a Protein A chip, hNectin-4-His injected at 0-100 nM, 1:1 fit. The sheet prints no unit; M is taken from the column head of Table 12 for the same fits. Table 12 prints 6.03E-09 for ASG-22, so the sheet's number differs from the text.
Excerpt: as §2

The target is the same in experiment [12]. The experiment can be described thus: SPR, antibody on Protein A chip, hNectin-4-His analyte, 1:1 fit.
Excerpt: as §2

The target is the same in experiment [13]. The experiment can be described thus: ELISA, coated antigen.
Excerpt: as §1
In this assay, the binding of different antibodies to human Nectin-4 homologous proteins hNectin-1 (ACRO, PV1-H5223), hNectin-2 (ACRO, PV2-H52E2), hNectin-3 (ACRO, PV3-H52E4), and hNectin-4-His was detected by ELISA to determine the specificity of the antibodies. For the methodology and procedures, see Example 4. Antigens of interest ([…]) were immobilized; after blocking, serially diluted antibodies (2-fold serially diluted from […]) were added, and HRP-labeled anti-human-Kappa secondary antibody was added for chromogenic reaction.
This is another data set of the same source.

We go through two molecules from US20260144882A1 (BIO THERA SOLUTIONS, published 2026).

Where “and” joins values, the source holds several entries; their conditions need not be identical. Identical values can stand only once. Like-named read-outs stand apart in the source and are kept apart here.

B1: reference antibody ASG-22 (antibody, human IgG1, kappa, V domains shown)
VH: EVQLVESGGGLVQPGGSLRLSCAASGFTFSSYNMNWVRQAPGKGLEWVSYISSSSSTIYYADSVKGRFTISRDNAKNSLSLQMNSLRDEDTAVYYCARAYYYGMDVWGQGTLVTVSS
VL: DIQMTQSPSSVSASVGDRVTITCRASQGISGWLAWYQQKPGKAPKFLIYAASTLQSGVPSRFSGSGSGTDFTLTISSLQPEDFATYYCQQANSFPPTFGGGTKVEIKR
Broadly, the EC50 is the concentration needed to bring the measured effect to its halfway point. The Kd is the constant that tells how readily two partners part at equilibrium. What is called koff is the first-order rate constant of dissociation. What is called kon is a measure of how fast the partners come together. On to B1, for which the EC50 in experiment [1] was 0.042 mg/L and 0.046 mg/L; in experiment [4], 0.118 µg/mL and 0.788 nM; in experiment [5], 1.23 mg/L; in [6], 0.035 mg/L; in experiment [7], 0.033 mg/L; in experiment [9], 0.042 mg/L. The molecule also registered an EC50 in experiment [10] of 0.019 mg/L. For the same molecule, the equilibrium dissociation constant (Kd) is 10.1 nM and 10.9 nM in [2]; 6.68 nM in experiment [11]; 6.03 nM in [12]. The off-rate constant (koff) in [2] is 0.00581 s⁻¹ and 0.0059 s⁻¹; in experiment [12], 0.00436 s⁻¹. Moreover, the association rate constant (kon) was 577000 M⁻¹ s⁻¹ and 540000 M⁻¹ s⁻¹ in experiment [2]; 723000 M⁻¹ s⁻¹ in [12]. Moreover, the figures for the “MFI (mean fluorescence intensity) 0 h” value in experiment [3] and in [8] were 107000 MFI and 58600 MFI, respectively.

B2: antibody 3A10 (antibody, human IgG1, kappa, V domains shown)
VH: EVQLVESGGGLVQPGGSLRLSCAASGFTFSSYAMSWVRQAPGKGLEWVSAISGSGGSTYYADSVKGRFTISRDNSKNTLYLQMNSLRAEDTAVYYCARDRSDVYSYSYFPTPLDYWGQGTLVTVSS
VL: DIQMTQSPSSLSASVGDRVTITCRASQGISSYLAWYQQKPGKAPKLLIYAASSLQSGVPSRFSGSGSGTDFTLTISSLQPEDFATYYCQQHYTTPPTFGQGTKVEIKR
Regarding B2, the half-maximal effective concentration (EC50) was 0.062 mg/L in [13]; 0.186 µg/mL and 1.24 nM in experiment [4]; 0.037 mg/L in [5]; 0.037 mg/L in experiment [6]; 0.042 mg/L in experiment [7]; 0.068 mg/L in [9]. Besides, in experiment [3], the “MFI (mean fluorescence intensity) 0 h” value is 105000 MFI. The same molecule registered a Kd in experiment [12] of 2.1 nM. This molecule had a dissociation rate constant (koff) in experiment [12] of 0.000867 s⁻¹. For the same molecule, in experiment [12], the kon was 413000 M⁻¹ s⁻¹.
